Among the data in patent US20250152704A1 (PARAGON THERAPEUTICS, published 2025) are IC50 and Kd values, retold here.

The term IC50 denotes the midpoint of a concentration-inhibition curve. In general, Kd refers to the equilibrium constant for the complex coming apart.

Assay [1] addresses T1, Recombinant in-house Human FcRn protein (human, UniProt P55899 24-297; P61769 21-119, limits assumed).
T1 construct: also called huFCRN; HuFcRn
Description: competitive binding ELISA, pH 6.0, in triplicate; competitor IgG. A general note: ELISA stands for enzyme-linked immunosorbent assay.

Assay [2] deals with T1, Recombinant in-house Human FcRn protein. The experiment in a line: competitive binding ELISA, pH 6.0; competitor Efgartigimod (Fc Fragment 1).
Assay [3] has the same target. Description: SPR, pH 6. Background: Surface plasmon resonance follows binding to a sensor surface in real time, without labels.
For assay [4], the target named is T2, cynomolgus monkey FcRn (cynomolgus monkey, UniProt Q8SPV9 24-297; Q8SPW0 21-119, limits assumed).
T2 construct: also called cynoFcRn
The experiment in a line: SPR, pH 6.

Assay [5] addresses T3, rat FcRn (rat, UniProt P13599 23-298; P07151 21-119, limits assumed).
T3 sequence (looked up) 1: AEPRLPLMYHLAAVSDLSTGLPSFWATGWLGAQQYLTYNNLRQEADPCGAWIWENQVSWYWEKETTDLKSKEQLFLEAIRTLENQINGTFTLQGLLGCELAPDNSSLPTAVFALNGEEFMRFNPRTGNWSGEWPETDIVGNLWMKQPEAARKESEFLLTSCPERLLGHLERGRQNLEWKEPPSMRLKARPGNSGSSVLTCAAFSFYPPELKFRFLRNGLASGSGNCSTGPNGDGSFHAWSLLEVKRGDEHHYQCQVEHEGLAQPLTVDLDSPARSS
T3 sequence (looked up) 2: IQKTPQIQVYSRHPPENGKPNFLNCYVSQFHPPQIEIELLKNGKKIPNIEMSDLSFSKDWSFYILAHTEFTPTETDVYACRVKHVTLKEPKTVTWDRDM
The experiment in a line: SPR, pH 6.

For assay [6], the target named is T4, mouse FcRn (mouse, UniProt Q61559 22-297; P01887 21-119, limits assumed).
T4 sequence (looked up) 1: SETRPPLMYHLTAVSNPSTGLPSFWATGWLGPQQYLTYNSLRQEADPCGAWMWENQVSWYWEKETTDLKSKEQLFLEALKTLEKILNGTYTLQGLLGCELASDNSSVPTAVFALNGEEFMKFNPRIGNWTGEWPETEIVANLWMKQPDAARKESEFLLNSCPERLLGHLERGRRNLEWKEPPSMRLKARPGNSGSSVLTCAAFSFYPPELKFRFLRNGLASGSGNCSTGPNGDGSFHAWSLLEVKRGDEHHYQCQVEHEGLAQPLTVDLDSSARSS
T4 sequence (looked up) 2: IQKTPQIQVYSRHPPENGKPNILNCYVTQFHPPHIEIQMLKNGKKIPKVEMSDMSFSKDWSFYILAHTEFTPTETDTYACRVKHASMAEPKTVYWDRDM
The experiment in a line: SPR, pH 6.

Assay [7] deals with T1, Recombinant in-house Human FcRn protein. Description: SPR, pH 7.4.
For assay [8], the target named is T2, cynomolgus monkey FcRn. Description: SPR, pH 7.4.
For assay [9], the target named is T3, rat FcRn. The experiment in a line: SPR, pH 7.4.
The target of assay [10] is T4, mouse FcRn. Description: SPR, pH 7.4.

T1 sequence (P55899 24-297 limits assumed, chain 1 of 2): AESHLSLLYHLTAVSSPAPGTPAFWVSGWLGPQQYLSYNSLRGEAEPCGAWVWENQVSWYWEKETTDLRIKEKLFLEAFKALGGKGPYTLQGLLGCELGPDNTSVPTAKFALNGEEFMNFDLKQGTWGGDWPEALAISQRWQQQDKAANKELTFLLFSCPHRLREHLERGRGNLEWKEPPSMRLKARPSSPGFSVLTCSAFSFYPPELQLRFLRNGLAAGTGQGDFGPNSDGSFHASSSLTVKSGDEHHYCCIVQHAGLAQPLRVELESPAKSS
T1 sequence (P61769 21-119 limits assumed, chain 2 of 2): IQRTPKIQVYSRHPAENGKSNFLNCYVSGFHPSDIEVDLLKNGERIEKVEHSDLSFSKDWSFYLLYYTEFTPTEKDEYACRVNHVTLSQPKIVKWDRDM

B1: Fc Fragment 1 (other)
chain: DKTHTCPPCPAPELLGGPSVFLFPPKPKDTLYITREPEVTCVVVDVSHEDPEVKFNWYVDGVEVHNAKTKPREEQYNSTYRVVSVLTVLHQDWLNGKEYKCKVSNKALPAPIEKTISKAKGQPREPQVYTLPPSRDELTKNQVSLTCLVKGFYPSDIAVEWESNGQPENNYKTTPPVLDSDGSFFLYSKLTVDKSRWQQGNVFSCSVMHEALKFHYTQKSLSLSPG
notes: Human IgG1 Fc fragment (EU 221-446) with the named substitutions already in the entry; also called Efgartigimod (Efgart); Efgartigimod without the C-terminal lysine
Consider B1, for which the half-inhibitory concentration (IC50) in assay [1] amounted to 2.85 nM; in assay [2], 4.82 nM. In addition, the Kd came out at 8.8 nM in assay [3]; 39.7 nM in assay [4]; 3.71 nM in assay [5]; 0.269 nM in assay [6]; 239 nM in [7]; 1370 nM in [8]. The dissociation constant Kd in assay [9] was found to be 12.3 nM; in assay [10], 2.8 nM.

B2: Fc Fragment 18 (other)
chain: DKTHTCPPCPAPELLGGPSVFLFPPKPKDTLYITREPEVTCVVVDVSHEDPEVKFNWYVDGVEVHNAKTKPREEQYNSTYRVVSVLTVDHQDWLNGKEYKCKVSNKALPAPIEKTISKAKGQPREPQVYTLPPSRDELTKNQVSLTCLVKGFYPSDIAVEWESNGQPENNYKTTPPVLDSDGSFFLYSKLTVDKSRWQQGNVFSCSVLHEALKYHYTQKSLSLSPG
notes: Human IgG1 Fc fragment; substitutions already in the entry
Consider B2, for which the 50% inhibitory concentration (IC50) in assay [1] is 6.91 nM. Further, the Kd in [3] was found to be 58.7 nM; in assay [4] it was 51.2 nM; in assay [7], 262 nM; in assay [8] it was 2110 nM.

B3: Fc Fragment 2 (other)
chain: DKTHTCPPCPAPELLGGPSVFLFPPKPKDTLYITREPEVTCVVVDVSHEDPEVKFNWYVDGVEVHNAKTKPREEQYNSTYRVVSVLTVLHQDWLNGKEYKCKVSNKALPAPIEKTISKAKGQPREPQVYTLPPSRDELTKNQVSLTCLVKGFYPSDIAVEWESNGQPENNYKTTPPVLDSDGSFFLYSKLTVDKSRWQQGNVFSCSVLHEALKFHYTQKSLSLSPG
notes: Human IgG1 Fc fragment; substitutions already in the entry; also called Fc195
Turning to B3, the IC50 in [1] worked out at 1.31 nM; in assay [2], 4.09 nM. Besides, the Kd in assay [3] is 8.05 nM; in [4], 36.2 nM; in assay [5], 3.5 nM; in assay [6], 0.182 nM; in assay [7] it was 259 nM; in assay [8], 1540 nM. Further, the Kd in assay [9] was 11.8 nM; in assay [10], 2.55 nM.

B4: Fc Fragment 15 (other)
chain: DKTHTCPPCPAPELLGGPSVFLFPPKPKDTLYITREPEVTCVVVDVSHEDPEVKFNWYVDGVEVHNAKTKPREEQYNSTYRVVSVLTVDHQDWLNGKEYKCKVSNKALPAPIEKTISKAKGQPREPQVYTLPPSRDELTKNQVSLTCLVKGFYPSDIAVEWESNGQPENNYKTTPPVLDSDGSFFLYSKLTVDKSRWQQGNVFSCSVMHEALKFHYTQKSLSLSPG
notes: as for B2
Take B4: the IC50 in [1] came to 30.3 nM. The equilibrium dissociation constant (Kd) was determined as 76.4 nM in [3], 60.8 nM in assay [4], 291 nM in assay [7] and 1430 nM in assay [8].

B5: Fc Fragment 10 (other)
chain: DKTHTCPPCPAPELLGGPSVFLFPPKPKDTLYITREPEVTCVVVDVSHEDPEVKFNWYVDGVEVHNAKTKPREEQYNSTYRVVSVLTVLHQDWLNGKEYKCKVSNKALPAPIEKTISKAKGQPREPQVYTLPPSRDELTKNQVSLTCLVKGFYPSDIAVEWESNGQPENNYKTTPPVLDSDGSFFLYSKLTVDKSRWQQGNVFSCSVLHEALKYHYTQKSLSLSPG
notes: as for B2
Regarding B5, the IC50 in assay [2] came out at 5.03 nM. The dissociation constant (Kd) stood at 6.62 nM in [3]; 28.6 nM in assay [4]; 3.49 nM in assay [5]; 0.143 nM in assay [6]; 169 nM in assay [7]; 725 nM in assay [8]. The Kd in assay [9] worked out at 11.5 nM; in [10], 1.53 nM.

B6: Fc Fragment 20 (other)
chain: DKTHTCPPCPAPELLGGPSVFLFPPKPKDTLYITREPEVTCVVVDVSHEDPEVKFNWYVDGVEVHNAKTKPREEQYNSTYRVVSVLTVDHKDWLNGKEYKCKVSNKALPAPIEKTISKAKGQPREPQVYTLPPSRDELTKNQVSLTCLVKGFYPSDIAVEWESNGQPENNYKTTPPVLDSDGSFFLYSKLTVDKSRWQQGNVFSCSVMHEALKYHYTQKSLSLSPG
notes: as for B2
On to B6, for which the concentration for half-maximal inhibition (IC50) in assay [1] came out at 5.18 nM. For the same molecule, the Kd was 51.7 nM in [3], 372 nM in [4], 290 nM in assay [7] and 1550 nM in assay [8].

B7: Fc Fragment 17 (other)
chain: DKTHTCPPCPAPELLGGPSVFLFPPKPKDTLYITREPEVTCVVVDVSHEDPEVKFNWYVDGVEVHNAKTKPREEQYNSTYRVVSVLTVDHQDWLNGKEYKCKVSNKALPAPIEKTISKAKGQPREPQVYTLPPSRDELTKNQVSLTCLVKGFYPSDIAVEWESNGQPENNYKTTPPVLDSDGSFFLYSKLTVDKSRWQQGNVFSCSVLHEALKFHYTQKSLSLSPG
notes: as for B2
B7: the half-maximal inhibitory concentration (IC50) in assay [1] was found to be 10.2 nM. The dissociation constant (Kd) in [3] is 68.3 nM; in assay [4] it was 62.1 nM; in assay [7], 293 nM; in assay [8], 2190 nM.

B8: Fc Fragment 19 (other)
chain: DKTHTCPPCPAPELLGGPSVFLFPPKPKDTLYITREPEVTCVVVDVSHEDPEVKFNWYVDGVEVHNAKTKPREEQYNSTYRVVSVLTVDHKDWLNGKEYKCKVSNKALPAPIEKTISKAKGQPREPQVYTLPPSRDELTKNQVSLTCLVKGFYPSDIAVEWESNGQPENNYKTTPPVLDSDGSFFLYSKLTVDKSRWQQGNVFSCSVMHEALKFHYTQKSLSLSPG
notes: as for B2
Turning to B8, in [1], the IC50 came to 7.98 nM. Also, the Kd in [3] was 80.4 nM; in assay [4], 1250 nM; in [7], 252 nM; in [8] it was 1430 nM.

B9: Fc Fragment 16 (other)
chain: DKTHTCPPCPAPELLGGPSVFLFPPKPKDTLYITREPEVTCVVVDVSHEDPEVKFNWYVDGVEVHNAKTKPREEQYNSTYRVVSVLTVDHQDWLNGKEYKCKVSNKALPAPIEKTISKAKGQPREPQVYTLPPSRDELTKNQVSLTCLVKGFYPSDIAVEWESNGQPENNYKTTPPVLDSDGSFFLYSKLTVDKSRWQQGNVFSCSVMHEALKYHYTQKSLSLSPG
notes: as for B2
B9: the 50% inhibitory concentration (IC50) in [1] was 8.45 nM. Further, the dissociation constant (Kd) in assay [4] was found to be 47.2 nM; in assay [7] it was 371 nM; in [8] it was 1680 nM.

B10: Fc Fragment 3 (other)
chain: DKTHTCPPCPAPELLGGPSVFLFPPKPKDTLYITREPEVTCVVVDVSHEDPEVKFNWYVDGVEVHNAKTKPREEQYNSTYRVVSVLTVLHQDWLNGKEYKCKVSNKALPAPIEKTISKAKGQPREPQVYTLPPSRDELTKNQVSLTCLVKGFYPSDIAVEWESNGQPENNYKTTPPVLDSDGSFFLYSKLTVDKSRWQQGNVFSCSVMHEALKYHYTQKSLSLSPG
notes: Human IgG1 Fc fragment; substitutions already in the entry; also called Fc197
Regarding B10, the concentration for half-maximal inhibition (IC50) in [1] is 0.77 nM; in assay [2], 4.59 nM. Further, the dissociation constant Kd is 6.74 nM in [3]; 28.9 nM in assay [4]; 4.25 nM in [5]; 0.172 nM in assay [6]; 210 nM in [7]; 948 nM in [8]. The figures for the Kd in [9] and in [10] were 14.9 nM and 2.38 nM, respectively.
